# Measurements from PMC2777425.
# T1: K752G844 (winged-helix domain) (UniProt Q54324 752-844)
# T1 sequence: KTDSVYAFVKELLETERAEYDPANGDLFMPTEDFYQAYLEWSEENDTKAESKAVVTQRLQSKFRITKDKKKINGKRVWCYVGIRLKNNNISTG
# Target: T1, K752G844 (winged-helix domain)
# Test: fluorescence anisotropy
binder,measurement,value
TCTTCTGTGCACTCTTC (ssDNA) [17-mer ss],apparent K (half saturation),1600 nM
